Test results as given in patent US20200262877A1, “ION CHANNEL-BINDING PEPTIDES AND METHODS OF USE THEREOF” (priority 2017, published 2020).

Experiments:
5HT3a = target: T1, 5HT3a (Homo sapiens, UniProt P46098); assay: Ion channel panel (IonWorks Barracuda): 5HT3a; format: cell-based
T1 construct: host or cells: HEK293 or CHO
T1 sequence (P46098 whole entry, looked up): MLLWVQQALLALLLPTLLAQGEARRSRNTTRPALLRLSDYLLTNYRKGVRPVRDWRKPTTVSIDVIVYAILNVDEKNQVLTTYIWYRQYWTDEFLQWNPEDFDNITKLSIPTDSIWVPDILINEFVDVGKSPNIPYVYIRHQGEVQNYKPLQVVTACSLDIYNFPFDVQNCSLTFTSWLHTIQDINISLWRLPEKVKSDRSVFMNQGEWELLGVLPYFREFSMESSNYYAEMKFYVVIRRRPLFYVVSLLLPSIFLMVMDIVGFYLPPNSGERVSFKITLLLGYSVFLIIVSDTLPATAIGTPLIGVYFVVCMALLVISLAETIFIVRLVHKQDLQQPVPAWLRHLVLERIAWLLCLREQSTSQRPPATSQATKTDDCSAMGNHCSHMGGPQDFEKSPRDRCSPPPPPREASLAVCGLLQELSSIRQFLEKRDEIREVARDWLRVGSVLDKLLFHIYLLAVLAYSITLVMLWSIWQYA
Summary of the method: (§1)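 Peptides were tested in duplicate at final 20 μM and 200 nM, with concentration set by amino acid analysis, in HEPES-buffered saline. They were applied for at least 5 min to HEK293 or CHO cells transfected with each channel. Currents were expressed as % inhibition, 1-(Ipeptide/Icontrol)×100, or % activation, Ipeptide/Icontrol×100, against a channel-matched reference compound.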

α3β4 = target: T2, α3β4 (Homo sapiens, UniProt P30926+P32297); assay: Ion channel panel (IonWorks Barracuda): α3β4; format: cell-based; conditions: 100% = no change, <100% = inhibition
T2 construct: host or cells: HEK293 or CHO
Summary of the method: as §1

α4β2 = target: T3, α4β2 (Homo sapiens, UniProt P17787+P43681); assay: Ion channel panel (IonWorks Barracuda): α4β2; format: cell-based; conditions: 100% = no change, <100% = inhibition
T3 construct: host or cells: HEK293 or CHO
Summary of the method: as §1

Cav2.1 = target: T4, Cav2.1 (Homo sapiens, UniProt O00555); assay: cell-based; conditions: 100% = no change, <100% = inhibition
T4 construct: host or cells: HEK293 or CHO
Summary of the method: as §1

Cav2.2 = target: T5, Cav2.2 (Homo sapiens, UniProt Q00975); assay: cell-based; conditions: 100% = no change, <100% = inhibition
T5 construct: host or cells: HEK293 or CHO
Summary of the method: as §1

Kv2.1 = target: T6, Kv2.1 (Homo sapiens, UniProt Q14721); assay: cell-based; conditions: 100% = no change, <100% = inhibition
T6 construct: host or cells: HEK293 or CHO
Summary of the method: as §1

GABA = assay: Ion channel panel (IonWorks Barracuda): GABA; format: cell-based; conditions: 100% = no change, <100% = inhibition
Summary of the method: as §1

Nav1.5 = Nav1.5 (Homo sapiens, UniProt Q14524); assay: in vitro; conditions: 100% = no change; for Activity of Nav1.5 with peptide, expressed as a percentage of the reference compound: peptide at 0.2 μM; for Activity of Nav1.5 with peptide (percentage of the reference compound): peptide at 20 μM
Sequence of Nav1.5 (Q14524 whole entry): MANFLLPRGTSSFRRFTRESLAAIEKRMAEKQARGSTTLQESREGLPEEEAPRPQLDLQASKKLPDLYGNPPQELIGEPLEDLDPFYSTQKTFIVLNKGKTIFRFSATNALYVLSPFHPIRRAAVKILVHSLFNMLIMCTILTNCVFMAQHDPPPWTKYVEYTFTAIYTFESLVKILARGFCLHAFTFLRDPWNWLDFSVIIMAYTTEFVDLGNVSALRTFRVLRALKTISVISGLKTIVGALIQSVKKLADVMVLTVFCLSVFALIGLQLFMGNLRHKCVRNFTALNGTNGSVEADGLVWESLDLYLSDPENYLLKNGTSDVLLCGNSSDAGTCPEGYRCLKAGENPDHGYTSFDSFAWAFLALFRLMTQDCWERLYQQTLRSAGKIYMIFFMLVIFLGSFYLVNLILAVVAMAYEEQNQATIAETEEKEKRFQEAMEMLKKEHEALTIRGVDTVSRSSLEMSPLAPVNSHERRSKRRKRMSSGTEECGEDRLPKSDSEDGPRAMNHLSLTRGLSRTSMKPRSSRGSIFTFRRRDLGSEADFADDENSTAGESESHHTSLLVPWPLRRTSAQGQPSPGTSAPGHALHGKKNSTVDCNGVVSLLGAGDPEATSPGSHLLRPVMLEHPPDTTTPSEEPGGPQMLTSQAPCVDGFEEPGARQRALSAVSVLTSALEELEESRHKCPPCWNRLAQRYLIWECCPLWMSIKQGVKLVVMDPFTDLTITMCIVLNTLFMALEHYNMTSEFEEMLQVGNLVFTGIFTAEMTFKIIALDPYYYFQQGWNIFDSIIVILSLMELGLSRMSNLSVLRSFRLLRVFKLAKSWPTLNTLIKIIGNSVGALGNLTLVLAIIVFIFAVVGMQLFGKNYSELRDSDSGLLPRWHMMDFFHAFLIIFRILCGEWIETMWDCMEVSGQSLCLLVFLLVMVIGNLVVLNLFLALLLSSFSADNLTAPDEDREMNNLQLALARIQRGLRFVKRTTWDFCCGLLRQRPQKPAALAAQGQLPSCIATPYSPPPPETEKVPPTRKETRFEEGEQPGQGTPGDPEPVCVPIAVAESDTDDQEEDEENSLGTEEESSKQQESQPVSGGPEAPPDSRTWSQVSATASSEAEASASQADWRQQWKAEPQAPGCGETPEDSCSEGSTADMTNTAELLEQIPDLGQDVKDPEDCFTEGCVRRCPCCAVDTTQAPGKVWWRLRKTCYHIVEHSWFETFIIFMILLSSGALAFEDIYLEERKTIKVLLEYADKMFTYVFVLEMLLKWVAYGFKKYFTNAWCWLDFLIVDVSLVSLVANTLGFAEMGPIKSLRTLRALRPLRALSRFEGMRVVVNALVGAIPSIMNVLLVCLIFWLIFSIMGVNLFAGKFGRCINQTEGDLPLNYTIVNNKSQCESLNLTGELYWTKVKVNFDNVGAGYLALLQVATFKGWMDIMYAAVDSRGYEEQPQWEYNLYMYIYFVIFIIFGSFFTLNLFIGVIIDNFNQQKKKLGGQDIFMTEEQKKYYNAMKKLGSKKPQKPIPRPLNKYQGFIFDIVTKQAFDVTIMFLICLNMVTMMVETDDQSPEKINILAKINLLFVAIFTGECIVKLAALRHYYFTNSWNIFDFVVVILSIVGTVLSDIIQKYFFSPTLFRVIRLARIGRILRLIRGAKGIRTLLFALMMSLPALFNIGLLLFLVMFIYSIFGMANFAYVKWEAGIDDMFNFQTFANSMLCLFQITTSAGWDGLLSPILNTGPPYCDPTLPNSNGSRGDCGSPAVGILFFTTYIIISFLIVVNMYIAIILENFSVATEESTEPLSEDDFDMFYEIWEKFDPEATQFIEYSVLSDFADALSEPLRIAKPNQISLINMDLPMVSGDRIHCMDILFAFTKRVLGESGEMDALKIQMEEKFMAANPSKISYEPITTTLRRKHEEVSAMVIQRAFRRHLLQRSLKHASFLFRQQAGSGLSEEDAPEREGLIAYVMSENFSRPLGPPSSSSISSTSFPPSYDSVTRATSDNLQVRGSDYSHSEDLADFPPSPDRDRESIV
Summary of the method: as §1

hERG = hERG (Homo sapiens, UniProt Q12809); assay: in vitro; conditions: 100% = no change, <100% = inhibition
Summary of the method: as §1

Kir2.1 = target: T7, Kir2.1 (Homo sapiens, UniProt P63252); assay: Ion channel panel (IonWorks Barracuda): Kir2.1; format: cell-based; conditions: 100% = no change, <100% = inhibition
T7 construct: host or cells: HEK293 or CHO
Summary of the method: as §1

Kv1.1 = target: T8, Kv1.1 (Homo sapiens, UniProt Q09470); assay: cell-based; format: cell-based; conditions: 100% = no change, <100% = inhibition
T8 construct: host or cells: HEK293 or CHO
T8 sequence (Q09470 whole entry): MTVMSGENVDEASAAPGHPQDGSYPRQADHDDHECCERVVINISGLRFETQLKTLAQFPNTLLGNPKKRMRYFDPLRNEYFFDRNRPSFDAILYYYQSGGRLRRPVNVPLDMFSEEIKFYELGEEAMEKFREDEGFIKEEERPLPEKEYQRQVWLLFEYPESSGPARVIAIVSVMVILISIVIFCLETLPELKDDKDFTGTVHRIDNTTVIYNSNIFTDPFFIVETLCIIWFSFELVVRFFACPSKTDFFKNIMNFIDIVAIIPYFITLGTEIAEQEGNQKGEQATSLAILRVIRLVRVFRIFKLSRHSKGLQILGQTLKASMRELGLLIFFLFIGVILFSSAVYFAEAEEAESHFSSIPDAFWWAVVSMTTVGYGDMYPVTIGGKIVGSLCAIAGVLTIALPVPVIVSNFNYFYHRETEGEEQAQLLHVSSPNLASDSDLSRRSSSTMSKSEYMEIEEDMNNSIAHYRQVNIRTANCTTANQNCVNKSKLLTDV
Summary of the method: as §1

Kv1.2 = target: T9, Kv1.2 (Homo sapiens, UniProt P16389); assay: cell-based; format: cell-based; conditions: 100% = no change, <100% = inhibition
T9 construct: host or cells: HEK293 or CHO
T9 sequence (P16389 whole entry): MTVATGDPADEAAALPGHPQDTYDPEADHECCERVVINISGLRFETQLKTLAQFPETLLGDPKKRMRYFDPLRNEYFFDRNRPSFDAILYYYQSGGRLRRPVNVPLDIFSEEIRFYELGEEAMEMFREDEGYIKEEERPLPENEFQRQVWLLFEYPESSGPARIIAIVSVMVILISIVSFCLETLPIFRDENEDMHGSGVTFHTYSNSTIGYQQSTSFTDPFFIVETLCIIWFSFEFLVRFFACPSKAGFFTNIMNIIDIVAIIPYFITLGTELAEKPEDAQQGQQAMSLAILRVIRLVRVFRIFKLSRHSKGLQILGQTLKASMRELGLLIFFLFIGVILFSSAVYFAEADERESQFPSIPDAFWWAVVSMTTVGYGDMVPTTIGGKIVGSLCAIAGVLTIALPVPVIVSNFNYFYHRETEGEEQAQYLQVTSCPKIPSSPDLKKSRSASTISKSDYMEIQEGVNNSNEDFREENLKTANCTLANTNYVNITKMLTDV
Summary of the method: as §1

Kv1.3 = target: T10, Kv1.3 (Homo sapiens, UniProt P22001); assay: cell-based; format: cell-based; conditions: 100% = no change, <100% = inhibition
T10 construct: host or cells: HEK293 or CHO
Summary of the method: as §1

Nav1.7 = target: T11, Nav1.7 (Homo sapiens, UniProt Q15858); assay: cell-based; format: cell-based; conditions: 100% = no change; for Activity of Nav1.7 with peptide, expressed as a percentage of the reference compound: peptide at 0.2 μM; for Activity of Nav1.7 with peptide (percentage of the reference compound): peptide at 20 μM
T11 construct: host or cells: HEK293 or CHO
T11 sequence (Q15858 whole entry): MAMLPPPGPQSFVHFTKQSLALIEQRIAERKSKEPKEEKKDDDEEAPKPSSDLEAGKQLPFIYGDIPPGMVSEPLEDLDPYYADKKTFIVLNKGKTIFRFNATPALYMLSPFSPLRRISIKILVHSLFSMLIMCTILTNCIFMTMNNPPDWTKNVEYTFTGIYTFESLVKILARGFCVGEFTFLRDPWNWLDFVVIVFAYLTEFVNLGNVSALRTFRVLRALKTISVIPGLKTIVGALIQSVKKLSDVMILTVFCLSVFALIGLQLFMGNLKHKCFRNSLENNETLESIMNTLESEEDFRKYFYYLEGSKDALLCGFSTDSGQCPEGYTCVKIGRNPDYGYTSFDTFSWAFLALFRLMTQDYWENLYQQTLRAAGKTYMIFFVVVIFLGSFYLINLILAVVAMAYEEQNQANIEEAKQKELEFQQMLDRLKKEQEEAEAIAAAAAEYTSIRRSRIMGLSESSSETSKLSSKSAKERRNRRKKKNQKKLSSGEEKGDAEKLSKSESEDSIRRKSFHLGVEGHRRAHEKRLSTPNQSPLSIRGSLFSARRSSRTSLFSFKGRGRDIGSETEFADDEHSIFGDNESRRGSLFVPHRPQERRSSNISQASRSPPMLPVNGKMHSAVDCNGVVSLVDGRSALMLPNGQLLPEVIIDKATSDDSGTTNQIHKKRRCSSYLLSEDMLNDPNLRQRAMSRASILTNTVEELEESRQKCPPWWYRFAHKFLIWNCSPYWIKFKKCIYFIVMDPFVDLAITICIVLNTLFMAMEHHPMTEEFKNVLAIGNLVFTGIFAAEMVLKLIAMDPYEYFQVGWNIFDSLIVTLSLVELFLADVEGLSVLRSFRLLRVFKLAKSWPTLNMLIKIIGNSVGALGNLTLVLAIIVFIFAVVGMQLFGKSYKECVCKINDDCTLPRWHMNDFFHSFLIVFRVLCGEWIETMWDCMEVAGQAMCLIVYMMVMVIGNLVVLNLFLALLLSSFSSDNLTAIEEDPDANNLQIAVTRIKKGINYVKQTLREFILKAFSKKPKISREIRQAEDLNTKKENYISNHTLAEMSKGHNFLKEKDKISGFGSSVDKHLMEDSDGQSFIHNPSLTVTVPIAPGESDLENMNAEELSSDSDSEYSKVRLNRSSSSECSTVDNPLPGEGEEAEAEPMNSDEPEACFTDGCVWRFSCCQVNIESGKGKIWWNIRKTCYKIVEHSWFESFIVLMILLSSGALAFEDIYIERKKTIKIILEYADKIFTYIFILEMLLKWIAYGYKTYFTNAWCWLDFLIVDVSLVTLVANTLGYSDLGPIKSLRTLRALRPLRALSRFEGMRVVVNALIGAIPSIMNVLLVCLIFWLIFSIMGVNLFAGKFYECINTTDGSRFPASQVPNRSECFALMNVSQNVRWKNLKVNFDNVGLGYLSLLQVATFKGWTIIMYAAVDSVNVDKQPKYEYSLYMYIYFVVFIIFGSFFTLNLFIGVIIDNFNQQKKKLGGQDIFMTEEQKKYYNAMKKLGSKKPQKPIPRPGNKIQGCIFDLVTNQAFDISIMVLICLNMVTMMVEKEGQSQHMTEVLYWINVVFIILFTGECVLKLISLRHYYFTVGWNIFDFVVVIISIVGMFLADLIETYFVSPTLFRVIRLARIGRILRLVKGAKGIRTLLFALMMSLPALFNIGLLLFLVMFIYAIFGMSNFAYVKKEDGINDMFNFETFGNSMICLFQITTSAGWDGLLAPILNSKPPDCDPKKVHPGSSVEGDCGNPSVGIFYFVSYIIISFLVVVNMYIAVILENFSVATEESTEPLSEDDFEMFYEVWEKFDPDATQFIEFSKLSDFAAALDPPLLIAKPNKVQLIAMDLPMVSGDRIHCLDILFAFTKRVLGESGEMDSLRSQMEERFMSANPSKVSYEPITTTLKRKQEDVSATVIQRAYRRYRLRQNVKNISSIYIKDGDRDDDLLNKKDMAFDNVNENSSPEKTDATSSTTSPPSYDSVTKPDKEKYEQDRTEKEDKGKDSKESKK

NR2A = target: T12, NR2A (Homo sapiens, UniProt Q12879); assay: Ion channel panel (IonWorks Barracuda): NR2A; format: cell-based; conditions: 100% = no change, <100% = inhibition
T12 construct: host or cells: HEK293 or CHO
Summary of the method: as §1

NR2B = target: T13, NR2B (Homo sapiens, UniProt Q13224); assay: Ion channel panel (IonWorks Barracuda): NR2B; format: cell-based; conditions: 100% = no change, <100% = inhibition
T13 construct: host or cells: HEK293 or CHO
Summary of the method: as §1

TRPA1 = target: T14, TRPA1 (Homo sapiens, UniProt O75762); assay: Ion channel panel (IonWorks Barracuda): TRPA1; format: cell-based; conditions: 100% = no change, <100% = inhibition
T14 construct: host or cells: HEK293 or CHO
Summary of the method: as §1

TRPV1 = target: T15, TRPV1 (Homo sapiens, UniProt Q8NER1); assay: Ion channel panel (IonWorks Barracuda): TRPV1; format: cell-based; conditions: 100% = no change, <100% = inhibition
T15 construct: host or cells: HEK293 or CHO
Summary of the method: as §1

[1] = first of two Nav1.5 columns (probably TP1)
[2] = second of two Nav1.5 columns (probably TP2)
[3] = first of two Nav1.7 columns (probably TP1)
[4] = second of two Nav1.7 columns (probably TP2)

## 25 (GSACLAEYQKCEGSTVPCCPGLSCSAGRFRKTKLCTK) [compound 25]
5HT3a
  Activity of 5HT3a with peptide (percentage of the reference compound): 94%
  Activity of 5HT3a with peptide, expressed as a percentage of the reference compound: 82%
α3β4; peptide at 0.2 μM
  Activity of a3b4 with peptide, expressed as a percentage of the reference compound: 105%
α3β4; peptide at 20 μM
  Activity of a3b4 with peptide (percentage of the reference compound): 91%
α4β2; peptide at 0.2 μM
  Activity of a4b2 with peptide, expressed as a percentage of the reference compound: 73%
α4β2; peptide at 20 μM
  Activity of a4b2 with peptide (percentage of the reference compound): 75%
Cav2.1; peptide at 0.2 μM
  Activity of Cav2.1 with peptide, expressed as a percentage of the reference compound: 89%
Cav2.1; peptide at 20 μM
  Activity of Cav2.1 with peptide (percentage of the reference compound): 109%
Cav2.2; peptide at 0.2 μM
  Activity of Cav2.2 with peptide, expressed as a percentage of the reference compound: 111%
Cav2.2; peptide at 20 μM
  Activity of Cav2.2 with peptide (percentage of the reference compound): 111%
Kv2.1; peptide at 0.2 μM
  Activity of Kv2.1 with peptide, expressed as a percentage of the reference compound: 88%
Kv2.1; peptide at 20 μM
  Activity of Kv2.1 with peptide (percentage of the reference compound): 107%
GABA; peptide at 0.2 μM
  Activity of GABA with peptide, expressed as a percentage of the reference compound: 111%
GABA; peptide at 20 μM
  Activity of GABA with peptide (percentage of the reference compound): 98%
Nav1.5; [1]
  Activity of Nav1.5 with peptide, expressed as a percentage of the reference compound: 76%
  Activity of Nav1.5 with peptide (percentage of the reference compound): 88%
Nav1.5; [2]
  Activity of Nav1.5 with peptide, expressed as a percentage of the reference compound: 74%
  Activity of Nav1.5 with peptide (percentage of the reference compound): 87%
hERG; peptide at 0.2 μM
  Activity of hERG with peptide, expressed as a percentage of the reference compound: 76%
hERG; peptide at 20 μM
  Activity of hERG with peptide (percentage of the reference compound): 79%
Kir2.1; peptide at 0.2 μM
  Activity of Kir2.1 with peptide, expressed as a percentage of the reference compound: 79%
Kir2.1; peptide at 20 μM
  Activity of Kir2.1 with peptide (percentage of the reference compound): 98%
Kv1.1; peptide at 0.2 μM
  Activity of Kv1.1 with peptide, expressed as a percentage of the reference compound: 69%
Kv1.1; peptide at 20 μM
  Activity of Kv1.1 with peptide (percentage of the reference compound): 77%
Kv1.2; peptide at 0.2 μM
  Activity of Kv1.2 with peptide, expressed as a percentage of the reference compound: 72%
Kv1.2; peptide at 20 μM
  Activity of Kv1.2 with peptide (percentage of the reference compound): 85%
Kv1.3; peptide at 0.2 μM
  Activity of Kv1.3 with peptide, expressed as a percentage of the reference compound: 74%
Kv1.3; peptide at 20 μM
  Activity of Kv1.3 with peptide (percentage of the reference compound): 87%
Nav1.7; [3]
  Activity of Nav1.7 with peptide, expressed as a percentage of the reference compound: 66%
  Activity of Nav1.7 with peptide (percentage of the reference compound): 90%
Nav1.7; [4]
  Activity of Nav1.7 with peptide, expressed as a percentage of the reference compound: 54%
  Activity of Nav1.7 with peptide (percentage of the reference compound): 83%
NR2A; peptide at 0.2 μM
  Activity of NR2A with peptide, expressed as a percentage of the reference compound: 94%
NR2A; peptide at 20 μM
  Activity of NR2A with peptide (percentage of the reference compound): 106%
NR2B; peptide at 0.2 μM
  Activity of NR2B with peptide, expressed as a percentage of the reference compound: 99%
NR2B; peptide at 20 μM
  Activity of NR2B with peptide (percentage of the reference compound): 94%
TRPA1; peptide at 0.2 μM
  Activity of TRPA1 with peptide, expressed as a percentage of the reference compound: 124%
TRPA1; peptide at 20 μM
  Activity of TRPA1 with peptide (percentage of the reference compound): 129%
TRPV1; peptide at 0.2 μM
  Activity of TRPV1 with peptide, expressed as a percentage of the reference compound: 117%
TRPV1; peptide at 20 μM
  Activity of TRPV1 with peptide (percentage of the reference compound): 113%
